For this experiment, the target named is T1, recombinant fusion protein consisting of the extra cellular part of IL-1RAP and the Fc-part of human IgG1 … (human, UniProt Q9NPH3 21-367).
T1 construct: extracellular domain; also called IL-1RAP recombinant protein; recombinant IL-1RAP protein; not shown: Fc-part of human IgG1
T1 sequence (looked up): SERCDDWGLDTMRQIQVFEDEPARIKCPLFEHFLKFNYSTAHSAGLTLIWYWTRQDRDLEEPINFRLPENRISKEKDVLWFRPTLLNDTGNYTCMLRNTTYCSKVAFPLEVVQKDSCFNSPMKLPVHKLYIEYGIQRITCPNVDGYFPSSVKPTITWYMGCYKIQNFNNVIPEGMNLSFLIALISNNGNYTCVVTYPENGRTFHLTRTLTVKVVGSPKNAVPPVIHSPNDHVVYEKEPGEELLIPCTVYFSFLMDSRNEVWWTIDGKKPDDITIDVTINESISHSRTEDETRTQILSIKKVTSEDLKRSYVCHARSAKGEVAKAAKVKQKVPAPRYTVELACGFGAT
Briefly: ELISA, IL-1RAP protein captured by coated anti-human Fc, detected with anti-mouse Fc-HRP. From the text:
Anti-human Fc antibody was coated on a bottom of a plastic ELISA plate.

B1: mouse anti-hIL-1RAP monoclonal antibody clone #E3C3 (antibody, V domains shown)
VH: QVQLQQPGAELMMPGASVKVSCEASGYTFTDSWMHWVKQRPGQGLEWIGAIDPSDSYTTYNQKFTGKATLSVDESSNTAYMQLSSLTSEDSAVYYCARYYSGSNYISPFPYWGQGTLVTVSA
VL: DIVMTQSHKFMSTSVGDRVTITCKASLDVSTAVAWYQQKPGQSPKLLIYSASYRYTGVPDRFTGSGSGTDFTFTISSVQAEDLAVYYCQQHYSPPFTFGSGTNLEIK
notes: Murine hybridoma antibody; It was Alexa Fluor 488 labelled in some flow cytometry; also called #A3C3; #E3C3 mAb
On to B1, for which the binding result was “binds”.
